Source: the supplement of paper PMC9170038

System: MS2 coat protein
Test: apparent KD of MS2 coat protein; higher = weaker reporter binding
Details: Eterna round: R107
In short: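 Each design's apparent KD comes from the median of binding-curve fits to its normalised clusters. Those clusters carried RNA switches transcribed on-chip from Illumina sequencing clusters. SNAP-549-labelled MS2 coat protein was titrated onto them in twofold steps (0.7 or 1.5 nM to 3 µM; per step 0.8–1.5 h down to 10–20 min). Conditions were 100 mM Tris-HCl pH 7.5, 80 mM KCl, 4 mM MgCl2, without or with constant ligand.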

[1] = input ligand: theophylline 20 uM
[2] = input ligand: theophylline 2 mM
[3] = input ligand: tryptophan 2.4 mM

Sequence	apparent KD of MS2 coat protein (input ligand: arginine 13.2 mM)	apparent KD of MS2 coat protein (input ligand: none)	apparent KD of MS2 coat protein [1]	apparent KD of MS2 coat protein [2]	apparent KD of MS2 coat protein [3]
GGGUACAUCGCGGCCGCCACUCAUGUAAAUGCGUGAGGAUCACCCAUGCCGAUGGAGACAUCGGAGAGGACCGGGUGAUGUACCG	27.9 nM	38.5 nM	40 nM	52.7 nM	46.7 nM
GGGUGGUAGGCGGCCGCCACUGAUUUUUAUUUAUAGAUGACAUGAGGAUCACCCAUGUUGAUAUGCAGGACCGGGCCUGUUGUUG [aaaP]	10.9 nM	–	19.7 nM	15.4 nM	–
GGGUGGUAGGCGGCCGCCACUGAUUUUUAUUUAUAGAUGACAUGAGGAUCACCCAUGUUUAUGUGCAGGACCGGGCCUGUUGUGG [aaaR]	12.2 nM	16.1 nM	15.2 nM	15.6 nM	13.9 nM
GGUACAUGAGGAUCACCCAUGUAUUGGUACCGAGGACCGGUACGGCCGCCACUCGCAUGACAUGAGGAUCACCCAUGUGAAACCU [SSTA DOUBLE!!! :-D #12]	29.3 nM	–	51.6 nM	59.9 nM	–
GGUAUGUAUUCGGAAACGAAUGCAUACCAACGAGGACCGGUACGGCCGCCACUCGGGCGGCGAUCACAUGAGGAUCACCCAUGUA [Ex Tryptophan A 2]	28 nM	–	45.3 nM	56.6 nM	–
GGUUGGUAUAUAUAUAUAUUGAUUACUGAAGGAGCGGGAAAUAACCCAGGUAGGUCGCAGAGAUCCACAUGAGGAUCACCCAUGU [!0.G]	24.3 nM	45.1 nM	60.3 nM	56.8 nM	39.1 nM
GGUUGGUGUAGAGAUAUAUUGAUUACUGAAGGAGCGGGAAAUAACCCAGGUAGGUCGCAGAGAUCCACAUGAGGAUCACCCAUGU [!0.K]	30.6 nM	39.7 nM	53 nM	36.9 nM	29.8 nM
GUCAGUAGAACAGAUACCAGUCAAAGGCUGUGAUCUCAUAACAUGAGGAUCACCCAUGUUGACCCUUGGCAGCUGUGGGCGAGGG [#20 Exclusion-TheophyllineB]	26 nM	–	77.8 nM	–	43.7 nM
GUCCACAGCCGAAGGAGCGCUAGAAGAUGACAUGAGGAUCACCCAUGUGUGUGAUGUGGCUAGCAGGUAGGUCGCGGAGUGGAUU [Exclusion - Arginine B (Freestyle 14)]	20.5 nM	21.7 nM	30.3 nM	24.8 nM	19.6 nM
GUCCUAAGGUCGGCCGCCACUGUAGAGUGUGAGCCAUCACAUGAGGAUCACCCAUGUUGUUGCUAUAGGACCGGGAUUGUAGGAC [#22 Exclusion Tryptophan B]	13.5 nM	–	15.5 nM	12.6 nM	–
GUCCUAGCGAUCGCUCGCUAGGACGCGGAUACCAGCGAGGUCCAUCGCCCUUGGCAGCCGAACAUGAGGAUCACCCAUGUCGGUA [#1 Same State - Theophylline A Attempt #18 (HarryS)]	8.4 nM	–	14.2 nM	–	10.2 nM
GUGUGCGGCACGGCCGCCACUGCGGUGGUGUGACAUGAGGAUCACCCAUGUUGUCAUGCGGCCCUUAGGACCGGGUGGCGUGCAC [#1 Exclusion - Tryptophan B Attempt #17 (HarryS)]	27.4 nM	37.3 nM	61.2 nM	50.4 nM	46.5 nM
GUUAGAUCAAAAGAUUUAACAGUGGGUGAACGAGGACCGGUACGGCCGCCACUCGGACAUGAGGAUCACCCAUGUCCAUGUGAAA [AstrosExyTryA#16]	19.4 nM	17.2 nM	15.2 nM	15.9 nM	43.5 nM
GUUAUGGACCUGGAUACCAGCUGGUACAAGGGCGGUCUACAUGAGGAUCACCCAUGUGUCAGCCCUUGGCAGCCAGCAACCCACU [Cele]	10.6 nM	–	16.7 nM	–	9.57 nM
GUUGGUUUGGGAAGGAGCGGGUAUGUUGUCUACUUGAUCCUAACAUGAGGAUCACCCAUGUCCCAGGUAGGUCGCCCAGGCUUUG [12.aD]	35.7 nM	139 nM	230 nM	103 nM	98.4 nM
UAACAUGAGGAUCACCCAUGUUUAGAUGAACGAGGACCGGUACGGCCGCCACUCGAUAAGUGGCAAGAACGAGGGAUUGUAUGCU [Same State Trp A GF3]	12.7 nM	13.8 nM	22.6 nM	11.7 nM	13.2 nM
UAACAUGAGGAUCACCCAUGUUUGAAGGAACGAGGACCGGUACGGCCGCCACUCGACGAGUGGAUGAGAAGUGGGCUUGUGUGCU [Same State Trp A GF9]	13.7 nM	15.5 nM	16.3 nM	13 nM	16.5 nM
UAAUAAUUGUGAUUCUCAGGUCCUCGAUAACGAGGACCGGUACGGCCGCCACUCGAACAUGAGGAUCACCCAUGUAUGAGGACCU [M'-T'-T-MS2-T'' - Design 3]	13.8 nM	15.9 nM	21 nM	19.6 nM	13.8 nM
UAAUAGGUCCAGAACGUACCAGGUGAUCAACGAGGACCGGUACGGCCGCCACUCGAAACAUGAGGAUCACCCAUGUAACUGGACC [|T'-M'-Trp-Ms2|_Design 2_ML]	173 nM	72.9 nM	95.3 nM	518 nM	61.4 nM

Sequence	apparent KD of MS2 coat protein (input ligand: arginine 13.2 mM)	apparent KD of MS2 coat protein (input ligand: none)	apparent KD of MS2 coat protein [1]	apparent KD of MS2 coat protein [2]	apparent KD of MS2 coat protein [3]
UAAUCCGGUCCUCGAUAGGUGAUCCUCUAACGAGGACCGGUACGGCCGCCACUCGAUAACAUGAGGAUCACCCAUGUAAUAAUAA [|T'-M'-Trp-Ms2|_Design16]	33 nM	–	41.9 nM	45.1 nM	–
UACAUGAGGAUCACCCAUGUAUGAAUAGAUACCAGAUAAAAUAAGGUCCCUUGGCAGCUAGUGAAUAAAGGGUGGGUAAAAUAAU [Exclusion Theophyline A GF 1]	11.3 nM	–	12.3 nM	–	9.24 nM
UACAUGAGGAUCACCCAUGUAUGUAUCGAAGGAGCGCGUGUAAACGCAGGUAGGUCGCGAACAUGAGGAUCACACAUGAGGAUCA [Same State Arginine A]	20.9 nM	–	31.1 nM	37.5 nM	29.3 nM
UACAUGAGGAUCACCCAUGUCUGAACUGAAGGAGCGCUAAACAAGGCAGGUAGGUCGCGGAAUUUUGUGUGCAUAUGCAUAUGGG [9.K]	23.6 nM	30.6 nM	46.7 nM	36.5 nM	31.1 nM
UACAUGAGGAUCACCCAUGUGUAGAGGGAUACCAGUGACAGUAAGCGCCCUUGGCAGCCCGUGAACAAUGGGUGAGCAAAAUAGU [#17 Exclusion-TheophyllineA]	41.4 nM	19.4 nM	233 nM	25.6 nM	44.7 nM
UACUUGCGGUCGGCCGCCACUACGAGGCAGACCUUCACAUGAGGAUCACCCAUGUAGUCGGCUAGUAGGACCGGGAUGGCAUAAA [Solasoce]	28.6 nM	29.2 nM	41.9 nM	41.8 nM	16.3 nM
UACUUGCUGACGGCCGCCACUAGAACAUGAGGAUCACCCAUGUACCUGGUCCUUCAUGGGUGGACUAGGACCGGGUCAGCAAGAU [(Trp1)-(Ms2)-(T)'-(M)'-(Trp2)_Design4]	186 nM	–	418 nM	517 nM	–
UAGAUAGAGGGAAGGAGCGCAGUAACAUAACAUGAGGAUCACCCAUGUAAGAAAUUAAUAAUGCAGGUAGGUCGCCCAAGAUGAU [#10 Same State - Arginine B]	12.4 nM	13.6 nM	17 nM	15.1 nM	13.9 nM
UAGUACAUGAGGAUCACCCAUGUCGGAGGUCGAGGACCGGUACGGCCGCCACUCGGUCAUGCCCUACGAUACGACAGGAAUCUGU [theeternabot_sameState_MS2_Trp_A_28]	21.8 nM	–	36.5 nM	28.9 nM	–
UAUACUAUGAAAGUAGUAUAUACGUGUUGACGAGGACCGGUACGGCCGCCACUCGACAUGAGGAUCACCCAUGUAUAGAAUAAGU [TrypA_F1]	18.6 nM	23.7 nM	24.4 nM	30 nM	15.3 nM
UAUAUUGUGAUGGAUACCAGCAGAGAAAACGUUUAUCCUAACAUGAGGAUCACCCAUGUAUGCCCUUGGCAGCUGUUGUGAUAUA [8.N]	47.6 nM	–	73.9 nM	–	61.1 nM
UAUCCACAUGAGGAUCACCCAUGUAAGGAAGGAGCGGUGAAUGCACCAGGUAGGUCGCCUUGCUGAGGACUGUCGGUGGAUUCGU [Exclusion - Arginine A (Freestyle 22)]	26.8 nM	32.8 nM	43.2 nM	39.5 nM	32 nM
UAUCGACACUGAAGGAGCGAGAUGACAAACAUGAGGAUCACCCAUGUUAUGGGUUGUUAAUCUCAGGUAGGUCGCAGUGGUCGCA [Same State Arginine B GF 18]	67.8 nM	93.3 nM	130 nM	108 nM	85.7 nM
UAUCGUCAGACGGCCGCCACUAGAACAUGAGGAUCACCCAUGUAGGUCCUAGAUUCCUCAAUAACUAGGACCGGGUCUGACGAAU [(Trp1)-(Ms2)-(T)'-(M)'-(Trp2)_Design14]	81.8 nM	–	137 nM	224 nM	–
UAUCGUCAGACGGCCGCCACUAGAACAUGAGGAUCACCCAUGUAGUGGCCGGAUACCUCAAUAACUAGGACCGGGUCUGACGAAU [(Trp1)-(Ms2)-(T)'-(M)'-(Trp2)_Design17]	36.6 nM	52.2 nM	96.5 nM	54 nM	32.7 nM
UAUGCACAUGAGGAUCACCCAUGUAUGGAAGGAGCGGUGAAUAAACCAGGUAGGUCGCCAUGGUGAGGGUCAUCUAUGUAAUCGU [Exclusion - Arginine A (Freestyle 5)]	51 nM	47.3 nM	78.4 nM	80.3 nM	59.3 nM
UAUUCUGACACAGAUACCAGUCAAUUCCGUGGCAAGUGCUACAUGAGGAUCACCCAUGUCGACCCUUGGCAGCUGAAGAGAUACA [theeternabot_exclusion_MS2_Theo_B_50]	10.9 nM	–	14.7 nM	–	11.2 nM
UCAAAUGCGGCGGCCGCCACUCGCGGAUAACGAUAGCUUAACAUGAGGAUCACCCAUGUGUCAUGGAGGACCGGGCCCAUAACAU [ttmullin]	23.4 nM	27.2 nM	35.1 nM	37.1 nM	23.9 nM
UCACAUGAGGAUCACCCAUGUGUCAGAGAAGGAGCGGCCGCAAGGCCAGGUAGGUCGCUCGGGUAUUGUGAGGUUCACCCGUGUG [#1 Exclusion - Arginine A Attempt #12 (Inspired by cyborg)]	26.7 nM	35.8 nM	57.3 nM	44.4 nM	34.6 nM
